Test results as given in the RNAGym collection of RNA variant scans (doi:10.1093/molbev/msab373).

B1: Azoarcus group I ribozyme (parent)
chain: GUGCCUUGCGCCGGGAAACCACGCAAGGGAUGGUGUCAAAUUCGGCGAAACCUAAGCGCCCGCCCGGGCGUAUGGCAACGCCGAGCCAAGCUUCGGCGCCUGCGCCGAUGAAGGUGUAGAGACUAGACGGCACCCACCUAAGGCAAACGCUAUGGUGAAGGCAUAGUCCAGGGAGUGGCGAAAGUCACACAAACCGG

Variants of: B1
Assay: reverse-splicing fitness (ratio to wild type); higher = more active; in vitro selection; Mg2+ level not given
Procedure, shortened: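 An in vitro group I ribozyme library with randomized positions was T7-transcribed and gel-purified. In triplicate, 10 pmol RNA in EPPS pH 7.5 was reacted with 50 pmoles of a 30-nt RNA substrate for 1 h at 37 °C across several added MgCl2 levels (1–48 mM), then stopped with EDTA. Products were reverse transcribed from a substrate-complementary primer, PCR-amplified and sequenced (HiSeq 4000). Fitness is a variant's read proportion after selection over that before, normalised to wild type.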

Variant | reverse-splicing fitness
GUGCCUUGCGCCGGGAAACCACGCAAGGGAUGGUGUCAAAUUCGGCGAAACCUAAGCGCCCGCCCGGGCGUAUGGCAACGCCGAGCCAAGCUUCGGCGCCUGCGCCGAUGUAGGUGUAGCGACUAGACGGCACCCACCUAAGGCCAACGCUAUGGUGAAGGCAUAGUCGAGGGAGGGGCGAAAGUCACACAAACCGG | 0.00463
GUGCCUUGCGCCGGGAAACCACGCAAGGGAUGGUGUCAAAUUCGGCGAAACCUAAGCGCCCGCCCGGGCGUAUGGCAACGCCGAGCCAAGCUUCGGCGCCUGCGCCGAUGUAGGUGUAGCGACUAGACGGCACCCACCUAAGGCCAACGCUAUGGUGAAGGCAUAGUCGAGGGAGCGGCGAAAGUCACACAAACCGG | 0.0106
GUGCCUUGCGCCGGGAAACCACGCAAGGGAUGGUGUCAAAUUCGGCGAAACCUAAGCGCCCGCCCGGGCGUAUGGCAACGCCGAGCCAAGCUUCGGCGCCUGCGCCGAUGUAGGUGUAGCGACUAGACGGCACCCACCUAAGGCGAACGAUAUGGUGAAGGCAUAGUCCAGGGAGUGGCGAAAGUCACACAAACCGG | 0.0986
GUGCCUUGCGCCGGGAAACCACGCAAGGGAUGGUGUCAAAUUCGGCGAAACCUAAGCGCCCGCCCGGGCGUAUGGCAACGCCGAGCCAAGCUUCGGCGCCUGCGCCGAUGUAGGUGUAGCGACUAGACGGCACCCACCUAAGGCGAACGGUAUGGUGAAGGCAUAGUCCAGGGAGUGGCGAAAGUCACACAAACCGG | 0.0716
GUGCCUUGCGCCGGGAAACCACGCAAGGGAUGGUGUCAAAUUCGGCGAAACCUAAGCGCCCGCCCGGGCGUAUGGCAACGCCGAGCCAAGCUUCGGCGCCUGCGCCGAUGUAGGUGUAGCGACUAGACGGCACCCACCUAAGGCCAACGCUAUGGUGAAGGCAUAGUCUAGGGAGUGGCGAAAGUCACACAAACCGG | 0.164
GUGCCUUGCGCCGGGAAACCACGCAAGGGAUGGUGUCAAAUUCGGCGAAACCUAAGCGCCCGCCCGGGCGUAUGGCAACGCCGAGCCAAGCUUCGGCGCCUGCGCCGAUGUAGGUGUAGCGACUAGACGGCACCCACCUAAGGCCAACGCUAUGGUGAAGGCAUAGUCUAGGGAGGGGCGAAAGUCACACAAACCGG | 0.00517
GUGCCUUGCGCCGGGAAACCACGCAAGGGAUGGUGUCAAAUUCGGCGAAACCUAAGCGCCCGCCCGGGCGUAUGGCAACGCCGAGCCAAGCUUCGGCGCCUGCGCCGAUGUAGGUGUAGCGACUAGACGGCACCCACCUAAGGCCAACGCUAUGGUGAAGGCAUAGUCUAGGGAGCGGCGAAAGUCACACAAACCGG | 0.0419
GUGCCUUGCGCCGGGAAACCACGCAAGGGAUGGUGUCAAAUUCGGCGAAACCUAAGCGCCCGCCCGGGCGUAUGGCAACGCCGAGCCAAGCUUCGGCGCCUGCGCCGAUGUAGGUGUAGCGACUAGACGGCACCCACCUAAGGCCAACGCUAUGGUGAAGGCAUAGUCUAGGGAGAGGCGAAAGUCACACAAACCGG | 0.0309
GUGCCUUGCGCCGGGAAACCACGCAAGGGAUGGUGUCAAAUUCGGCGAAACCUAAGCGCCCGCCCGGGCGUAUGGCAACGCCGAGCCAAGCUUCGGCGCCUGCGCCGAUGUAGGUGUAGCGACUAGACGGCACCCACCUAAGGCGAACGAUAUGGUGAAGGCAUAGUCAAGGGAGAGGCGAAAGUCACACAAACCGG | 0.0184
GUGCCUUGCGCCGGGAAACCACGCAAGGGAUGGUGUCAAAUUCGGCGAAACCUAAGCGCCCGCCCGGGCGUAUGGCAACGCCGAGCCAAGCUUCGGCGCCUGCGCCGAUGUAGGUGUAGCGACUAGACGGCACCCACCUAAGGCGAACGAUAUGGUGAAGGCAUAGUCAAGGGAGCGGCGAAAGUCACACAAACCGG | 0.0204
GUGCCUUGCGCCGGGAAACCACGCAAGGGAUGGUGUCAAAUUCGGCGAAACCUAAGCGCCCGCCCGGGCGUAUGGCAACGCCGAGCCAAGCUUCGGCGCCUGCGCCGAUGUAGGUGUAGCGACUAGACGGCACCCACCUAAGGCGAACGAUAUGGUGAAGGCAUAGUCAAGGGAGGGGCGAAAGUCACACAAACCGG | 0.00601
GUGCCUUGCGCCGGGAAACCACGCAAGGGAUGGUGUCAAAUUCGGCGAAACCUAAGCGCCCGCCCGGGCGUAUGGCAACGCCGAGCCAAGCUUCGGCGCCUGCGCCGAUGUAGGUGUAGCGACUAGACGGCACCCACCUAAGGCGAACGAUAUGGUGAAGGCAUAGUCUAGGGAGUGGCGAAAGUCACACAAACCGG | 0.034
GUGCCUUGCGCCGGGAAACCACGCAAGGGAUGGUGUCAAAUUCGGCGAAACCUAAGCGCCCGCCCGGGCGUAUGGCAACGCCGAGCCAAGCUUCGGCGCCUGCGCCGAUGUAGGUGUAGCGACUAGACGGCACCCACCUAAGGCGAACGAUAUGGUGAAGGCAUAGUCAAGGGAGUGGCGAAAGUCACACAAACCGG | 0.0121
GUGCCUUGCGCCGGGAAACCACGCAAGGGAUGGUGUCAAAUUCGGCGAAACCUAAGCGCCCGCCCGGGCGUAUGGCAACGCCGAGCCAAGCUUCGGCGCCUGCGCCGAUGUAGGUGUAGCGACUAGACGGCACCCACCUAAGGCGAACGAUAUGGUGAAGGCAUAGUCGAGGGAGUGGCGAAAGUCACACAAACCGG | 0.00836
GUGCCUUGCGCCGGGAAACCACGCAAGGGAUGGUGUCAAAUUCGGCGAAACCUAAGCGCCCGCCCGGGCGUAUGGCAACGCCGAGCCAAGCUUCGGCGCCUGCGCCGAUGUAGGUGUAGCGACUAGACGGCACCCACCUAAGGCGAACGCUAUGGUGAAGGCAUAGUCCAGGGAGUGGCGAAAGUCACACAAACCGG | 0.569
GUGCCUUGCGCCGGGAAACCACGCAAGGGAUGGUGUCAAAUUCGGCGAAACCUAAGCGCCCGCCCGGGCGUAUGGCAACGCCGAGCCAAGCUUCGGCGCCUGCGCCGAUGUAGGUGUAGCGACUAGACGGCACCCACCUAAGGCCAACGCUAUGGUGAAGGCAUAGUCCAGGGAGGGGCGAAAGUCACACAAACCGG | 0.0498
GUGCCUUGCGCCGGGAAACCACGCAAGGGAUGGUGUCAAAUUCGGCGAAACCUAAGCGCCCGCCCGGGCGUAUGGCAACGCCGAGCCAAGCUUCGGCGCCUGCGCCGAUGUAGGUGUAGCGACUAGACGGCACCCACCUAAGGCCAACGCUAUGGUGAAGGCAUAGUCCAGGGAGAGGCGAAAGUCACACAAACCGG | 0.232
GUGCCUUGCGCCGGGAAACCACGCAAGGGAUGGUGUCAAAUUCGGCGAAACCUAAGCGCCCGCCCGGGCGUAUGGCAACGCCGAGCCAAGCUUCGGCGCCUGCGCCGAUGUAGGUGUAGCGACUAGACGGCACCCACCUAAGGCCAACGCUAUGGUGAAGGCAUAGUCCAGGGAGCGGCGAAAGUCACACAAACCGG | 0.243
GUGCCUUGCGCCGGGAAACCACGCAAGGGAUGGUGUCAAAUUCGGCGAAACCUAAGCGCCCGCCCGGGCGUAUGGCAACGCCGAGCCAAGCUUCGGCGCCUGCGCCGAUGUAGGUGUAGCGACUAGACGGCACCCACCUAAGGCGAACGGUAUGGUGAAGGCAUAGUCAAGGGAGUGGCGAAAGUCACACAAACCGG | 0.0087
GUGCCUUGCGCCGGGAAACCACGCAAGGGAUGGUGUCAAAUUCGGCGAAACCUAAGCGCCCGCCCGGGCGUAUGGCAACGCCGAGCCAAGCUUCGGCGCCUGCGCCGAUGUAGGUGUAGCGACUAGACGGCACCCACCUAAGGCGAACGAUAUGGUGAAGGCAUAGUCCAGGGAGGGGCGAAAGUCACACAAACCGG | 0.013
GUGCCUUGCGCCGGGAAACCACGCAAGGGAUGGUGUCAAAUUCGGCGAAACCUAAGCGCCCGCCCGGGCGUAUGGCAACGCCGAGCCAAGCUUCGGCGCCUGCGCCGAUGUAGGUGUAGCGACUAGACGGCACCCACCUAAGGCGAACGAUAUGGUGAAGGCAUAGUCCAGGGAGAGGCGAAAGUCACACAAACCGG | 0.0518
GUGCCUUGCGCCGGGAAACCACGCAAGGGAUGGUGUCAAAUUCGGCGAAACCUAAGCGCCCGCCCGGGCGUAUGGCAACGCCGAGCCAAGCUUCGGCGCCUGCGCCGAUGUAGGUGUAGCGACUAGACGGCACCCACCUAAGGCGAACGAUAUGGUGAAGGCAUAGUCCAGGGAGCGGCGAAAGUCACACAAACCGG | 0.0785
GUGCCUUGCGCCGGGAAACCACGCAAGGGAUGGUGUCAAAUUCGGCGAAACCUAAGCGCCCGCCCGGGCGUAUGGCAACGCCGAGCCAAGCUUCGGCGCCUGCGCCGAUGUAGGUGUAGCGACUAGACGGCACCCACCUAAGGCGAACGAUAUGGUGAAGGCAUAGUCGAGGGAGGGGCGAAAGUCACACAAACCGG | 0.00488
GUGCCUUGCGCCGGGAAACCACGCAAGGGAUGGUGUCAAAUUCGGCGAAACCUAAGCGCCCGCCCGGGCGUAUGGCAACGCCGAGCCAAGCUUCGGCGCCUGCGCCGAUGUAGGUGUAGCGACUAGACGGCACCCACCUAAGGCGAACGAUAUGGUGAAGGCAUAGUCGAGGGAGAGGCGAAAGUCACACAAACCGG | 0.0161
GUGCCUUGCGCCGGGAAACCACGCAAGGGAUGGUGUCAAAUUCGGCGAAACCUAAGCGCCCGCCCGGGCGUAUGGCAACGCCGAGCCAAGCUUCGGCGCCUGCGCCGAUGUAGGUGUAGCGACUAGACGGCACCCACCUAAGGCGAACGAUAUGGUGAAGGCAUAGUCGAGGGAGCGGCGAAAGUCACACAAACCGG | 0.0246
GUGCCUUGCGCCGGGAAACCACGCAAGGGAUGGUGUCAAAUUCGGCGAAACCUAAGCGCCCGCCCGGGCGUAUGGCAACGCCGAGCCAAGCUUCGGCGCCUGCGCCGAUGUAGGUGUAGCGACUAGACGGCACCCACCUAAGGCGAACGGUAUGGUGAAGGCAUAGUCAAGGGAGCGGCGAAAGUCACACAAACCGG | 0.0123
GUGCCUUGCGCCGGGAAACCACGCAAGGGAUGGUGUCAAAUUCGGCGAAACCUAAGCGCCCGCCCGGGCGUAUGGCAACGCCGAGCCAAGCUUCGGCGCCUGCGCCGAUGUAGGUGUAGCGACUAGACGGCACCCACCUAAGGCGAACGGUAUGGUGAAGGCAUAGUCAAGGGAGAGGCGAAAGUCACACAAACCGG | 0.0117
GUGCCUUGCGCCGGGAAACCACGCAAGGGAUGGUGUCAAAUUCGGCGAAACCUAAGCGCCCGCCCGGGCGUAUGGCAACGCCGAGCCAAGCUUCGGCGCCUGCGCCGAUGUAGGUGUAGCGACUAGACGGCACCCACCUAAGGCGAACGAUAUGGUGAAGGCAUAGUCUAGGGAGCGGCGAAAGUCACACAAACCGG | 0.022
GUGCCUUGCGCCGGGAAACCACGCAAGGGAUGGUGUCAAAUUCGGCGAAACCUAAGCGCCCGCCCGGGCGUAUGGCAACGCCGAGCCAAGCUUCGGCGCCUGCGCCGAUGUAGGUGUAGCGACUAGACGGCACCCACCUAAGGCGAACGAUAUGGUGAAGGCAUAGUCUAGGGAGAGGCGAAAGUCACACAAACCGG | 0.0208
GUGCCUUGCGCCGGGAAACCACGCAAGGGAUGGUGUCAAAUUCGGCGAAACCUAAGCGCCCGCCCGGGCGUAUGGCAACGCCGAGCCAAGCUUCGGCGCCUGCGCCGAUGUAGGUGUAGCGACUAGACGGCACCCACCUAAGGCGAACGAUAUGGUGAAGGCAUAGUCUAGGGAGGGGCGAAAGUCACACAAACCGG | 0.00691
